The target in the experiment is T1, SARS-CoV-1 S protein with C-terminal C9 tag (SARS-CoV-1 (Severe acute respiratory …, UniProt P59594)).
T1 construct: also called S protein of SARS-CoV-1; SARS-spike
Kind of experiment: flow cytometry on cells. The note with it: one partner purified.

B1: REGN10933 (antibody, V domains shown)
VH: QVQLVESGGGLVKPGGSLRLSCAASGFTFSDYYMSWIRQAPGKGLEWVSYITYSGSTIYYADSVKGRFTISRDNAKSSLYLQMNSLRAEDTAVYYCARDRGTTMVPFDYWGQGTLVTVSS
VL: DIQMTQSPSSLSASVGDRVTITCQASQDITNYLNWYQQKPGKAPKLLIYAASNLETGVPSRFSGSGSGTDFTFTISGLQPEDIATYYCQQYDNLPLTFGGGTKVEIK
notes: also called casirivimab
Take B1: the binding result is “no binding”.

B2: REGN10987 (antibody, V domains shown)
VH: QVQLVESGGGVVQPGRSLRLSCAASGFTFSNYAMYWVRQAPGKGLEWVAVISYDGSNKYYADSVKGRFTISRDNSKNTLYLQMNSLRTEDTAVYYCASGSDYGDYLLVYWGQGTLVTVSS
VL: QSALTQPASVSGSPGQSITISCTGTSSDVGGYNYVSWYQQHPGKAPKLMIYDVSKRPSGVSNRFSGSKSGNTASLTISGLQSEDEADYYCNSLTSISTWVFGGGTKLTVL
notes: also called imdevimab
As to B2, the binding result is “no binding”.

The record behind these values is article PMC8885411, “Engineered ACE2 decoy mitigates lung injury and death induced by SARS-CoV-2 variants” (Nature Chemical Biology, 2022).
